Experimental findings from paper PMC10994351 are described below.

Among the targets are [F13A]myrArf1 (human) (UniProt P84077); [L8K]myrArf1 (human) (UniProt P84077); [L8A]myrArf1 (human) (UniProt P84077).
In assay [1] the target is [L8A/F13A]myrArf1 (human) (UniProt P84077).
In assay [2] the target is wild-type myristoylated Arf1 (WT myrArf1) (human) (UniProt P84077).

On to “PH, Arf GAP, and ankyrin repeats (PZA construct) of ASAP1, His-tagged (domain or fragment)”, for which the C50 (nM) of the GAP assay: ASAP1 PZA needed for 50% of maximum hydrolysis of [alpha-32P]GTP bound to myrArf1, LUVs with PIP2, 30°C, 3 min in assay [F13A]myrArf1 (human) is 2100 nM; in assay [1], 0.7 nM; in assay [L8K]myrArf1 (human), 0.84 nM; in assay [2] it was 0.79 nM; in assay [L8A]myrArf1 (human) it was 0.84 nM.
Take “full-length AGAP1, His-tagged (from UniProt Q9UPQ3 1-857) (enzyme)”: the C50 (nM) of the GAP assay: full-length AGAP1 needed for 50% of maximum hydrolysis of [alpha-32P]GTP bound to myrArf1, LUVs with PIP2, 30°C, 3 min in assay [F13A]myrArf1 (human) was 340 nM; in assay [2], 1.6 nM.
Regarding “tandem PH domains, Arf GAP, and ankyrin repeats of ARAP1 (PPZA construct), His-tagged (domain or fragment)”, the C50 (nM) of the GAP assay: ARAP1 PPZA needed for 50% of maximum hydrolysis of [alpha-32P]GTP bound to myrArf1, LUVs with PIP3, 30°C, 3 min in assay [F13A]myrArf1 (human) is 210 nM; in assay [2], 0.14 nM.
